Laboratory results: paper PMC5318860

Target: SAVSBPM18-L-ABD(KC) fusion (not stated | Lumbricus terrestris)
Assay: affinity chromatography; 1-ml columns with about 1 mg of SAVSBPM18-L-ABD(KC) on Sepharose 6B-CL or 1,025 μg of SAVSBPM18 on Affi-Gel 15; 1 mg of biotinylated BSA loaded, above the binding capacity; elution with 10 mM biotin; fractions on SDS-PAGE

amount bound per ml of matrix at saturation (μg per ml of matrix): 730
Substance: chemically biotinylated bovine serum albumin (BSA) (from UniProt P02769 25-607) (natural protein)
